Experimental data published in publication PMC9097366 (Cell reports, 2022).
Where a chain is given by its changes, count along the chain named.

B1: S. cerevisiae Atg23 FL (recombinant, purified) (natural protein, UniProt Q06671 1-453, looked up)
chain: MELNQVLEKKEQILQYLGTLVGLHEKALSDVNSASQVTSIRKDITICLNDLCRINDLLVSHDGLLKREIGSLLRDKQELLELNEREQLLWKERKSWHIKQETDAAPADYVIDKDAIITISSHHRTSLNKYIESVGAENTILSNTDDSDAMIEEVQNAESSADQMIRNYKLLQLSHKQAKSEIIRLETLLRDFKKDNKFIEEELKRQSGRIRSEMGNIDFHLSKIEESKHQLMKRIGFESPLTQEKSLSEKIFNLRLSSADEDYNERQTINMKNFVHMKDLIELKIEDLQEQLMRNKNESSTVLTQRELWLDCQKKVGDLESKLITKLRSSSNSKIPPNEMSEMINSTIQYLNNLLDSSDEKLTTTLISNERDVLSKACEELHSESTTAQDGSSALPSKPIDIHKSHKGSNASSNLKQPSTPSFLVASKSPPKIGISESVVNANKNDAISKKVE
B2: Atg23 M3 (recombinant, purified) (natural protein, S. cerevisiae, UniProt Q06671 1-453, looked up)
chain: B1 chain with K66E, R67E
B3: Atg23 M4 (recombinant, purified) (natural protein, S. cerevisiae, UniProt Q06671 1-453, looked up)
chain: B1 chain with K66E, R67E, K296E
B4: Atg23 M5 (recombinant, purified) (natural protein, S. cerevisiae, UniProt Q06671 1-453, looked up)
chain: B1 chain with K66E, R67E, R74E, R85E, K296E

Target: the molecule itself
Assay: AUC

Stoichiometry N, 2:
B1
B2
B3
B4
